Source: publication PMC3236213, “A Novel N-Acetylglutamate Synthase Architecture Revealed by the Crystal Structure of the Bifunctional Enzyme from Maricaulis maris” (PLoS ONE, 2011)

Tests used:
[1] = target: T1, mmNAGS/K (Maricaulis maris, UniProt Q0ASS9); experiment: NAGS assay, NAG quantified by LC-MS; assay type: biochemical; conditions: allosteric inhibitor of NAGS activity, not of NAGK activity; 2.5 mM AcCoA, 10 mM L-glutamate, 50 mM Tris-HCl pH 8.5; 293 K in Methods, 310 K in Figure 1 legend
T1 construct: gene Mmar10_0365; full length (AAK domain 1-290, linker Gly291, NAT domain 292-441); E. coli Rosetta 2; homotetramer
T1 sequence (Q0ASS9 1-441): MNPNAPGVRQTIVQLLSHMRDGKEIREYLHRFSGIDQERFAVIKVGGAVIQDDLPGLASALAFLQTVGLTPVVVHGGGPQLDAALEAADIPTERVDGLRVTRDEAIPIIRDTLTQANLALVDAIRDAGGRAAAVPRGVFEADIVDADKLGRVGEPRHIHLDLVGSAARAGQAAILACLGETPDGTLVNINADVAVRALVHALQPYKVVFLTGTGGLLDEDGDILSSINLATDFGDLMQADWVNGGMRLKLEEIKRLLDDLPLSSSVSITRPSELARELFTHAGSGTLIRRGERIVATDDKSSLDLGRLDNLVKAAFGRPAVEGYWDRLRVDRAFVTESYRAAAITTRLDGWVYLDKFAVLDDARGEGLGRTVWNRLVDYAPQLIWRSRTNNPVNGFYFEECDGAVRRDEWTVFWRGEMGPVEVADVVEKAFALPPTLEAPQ

[2] = target: T1, mmNAGS/K; experiment: X-ray crystallography (native, […] A); assay type: binding; conditions: modeled in residual density at NAT domain of subunits A and Y; 100 mM glutamate before crystallization; pH 6.5
[3] = target: Maricaulis maris bifunctional N-acetylglutamate synthase/kinase (mmNAGS/K), wild type (Maricaulis maris MCS10); experiment: cross-linking; 0.15 ug protein with 0.25 ug dimethyl suberimidate in 50 ul of 200 mM triethanolamine pH 8.25, three hours at 298 K; SDS-PAGE (NuPAGE 4-12% Bis-Tris), Coomassie blue
[4] = target: Maricaulis maris bifunctional N-acetylglutamate synthase/kinase (mmNAGS/K), wild type (Maricaulis maris MCS10); experiment: crystal structure; trigonal form P3(1)21 of native mmNAGS/K, 4.3 A, two subunits per asymmetric unit, molecular replacement with the A-X dimer; 23% PEG400, 100 mM Bis-Tris pH 6.5, 1 mM 5-amino-2,4,6-triiodoisophthalic acid
[5] = target: Maricaulis maris bifunctional N-acetylglutamate synthase/kinase (mmNAGS/K), wild type (Maricaulis maris MCS10); experiment: crystal structure; orthorhombic form P2(1)2(1)2(1) of mmNAGS/K, four subunits per asymmetric unit; protein incubated beforehand with 25 mM CoA and 100 mM glutamate; native: 25% PEG3350, 200 mM NaCl, 100 mM Bis-Tris pH 6.5; Se-Met mutant: 25% PEG3350, 200 mM sodium malonate pH 7.0
[6] = target: Se-Met substituted mmNAGS/K triple mutant (I106M, I294M, L376M) (Maricaulis maris MCS10); experiment: as above
[7] = target: Se-Met substituted xcNAGS/K (hexagonal crystal form) (Xanthomonas campestris); experiment: crystal structure; hexagonal form P6(2)22 of Se-Met xcNAGS/K, one subunit per asymmetric unit, molecular replacement with mmNAGS/K; tetramer made by crystallographic symmetry
[8] = target: Xanthomonas campestris bifunctional N-acetylglutamate synthase/kinase (xcNAGS/K), recombinant (Xanthomonas campestris); experiment: cross-linking; 0.15 ug protein with 0.25 ug dimethyl suberimidate in 50 ul of 200 mM triethanolamine pH 8.25, three hours at 298 K; SDS-PAGE (NuPAGE 4-12% Bis-Tris), Coomassie blue

## N=C(N)NCCC[C@H](N)C(=O)O [L-arginine]
[1]
  fold inhibition of NAGS activity at 1.0 mM: 14 fold

## N[C@@H](CCC(=O)O)C(=O)O [L-glutamate]
[2]
  X-ray crystallography (native, 3.1 A): residual electron density in subunits A and Y at this site that can be modeled as L-glutamate

## Maricaulis maris bifunctional N-acetylglutamate synthase/kinase (mmNAGS/K), wild type (enzyme)
[3]
  stoichiometry N: 4
[4]
  stoichiometry N: 4
[5]
  stoichiometry N: 4

## Se-Met substituted mmNAGS/K triple mutant (I106M, I294M, L376M) (enzyme)
[6]
  stoichiometry N: 4

## Se-Met substituted xcNAGS/K (hexagonal crystal form) (enzyme)
[7]
  stoichiometry N: 4

## Xanthomonas campestris bifunctional N-acetylglutamate synthase/kinase (xcNAGS/K), recombinant (enzyme)
[8]
  stoichiometry N: 4
